Measured values: US20210309707A1 (Stanford University, published 2021)

Target: T1, interferon-gamma receptor subunit 2 (IFN-γR2) (UniProt P38484 28-247, limits assumed)
T1 construct: Soluble purified protein (crystallised; analyte in SPR)
T1 sequence (looked up): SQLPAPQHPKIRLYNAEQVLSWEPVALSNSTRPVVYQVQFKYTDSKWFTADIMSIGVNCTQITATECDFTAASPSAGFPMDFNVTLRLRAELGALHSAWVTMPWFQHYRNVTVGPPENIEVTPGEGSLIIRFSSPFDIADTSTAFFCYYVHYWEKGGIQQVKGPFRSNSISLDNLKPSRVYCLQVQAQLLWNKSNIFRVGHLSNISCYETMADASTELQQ
Experiment: SPR (Biacore T100, equilibrium); IFN-γR2 dilutions over captured IFN-γR1 in the presence of 50 nM mutant IFN-γ
Procedure: The structure of the IFN-γ signaling complex as described in Example 2 above provided opportunities to address new questions to further understand IFN-γ signaling and activity. By identifying the shared interactions, previously unknown, at sites IIa/IIb, one now can better understand IFN-γ signaling at each step of complex formation. Since IFN-γ is a dimeric cytokine driving the dimerization of four receptors, further experiments were performed to design and generate variants of IFN-γ to affect one or more of the different signaling intermediates. The design of the partial agonists was achieved by first engineering a version of IFN-γ that abolished binding to IFN-γR2 receptor. Based on the structure described in Example 2, a triple IFN-γ mutant having three amino acid substitutions K74A, E75Y, and N83R (See FIG. 3A) was designed and validated for the loss of measurable binding to IFN-γR2 as determined by surface plasmon resonance (FIGS. 3B-3D). Without being bound to any particular theory, several other mutations or combinations thereof of the IFN-γR2 binding site amino acids of IFN-γ as indicated in the crystal structure (FIG. 2), either alone or in combination with mutations within the IFN-γR1 binding site, could also result in similar effects on IFN-γR2 binding. […]

binding result: no binding
B1: triple IFN-γ mutant having three amino acid substitutions K74A, E75Y, and N83R (ligand)
chain: QDPYVKEAENLKKYFNAGHSDVADNGTLFLGILKNWKEESDRKIMQSQIVSFYFKLFKNFKDDQSIQKSVETIAYDMNVKFFRSNKKKRDDFEKLTNYSVTDLNVQRKAIHELIQVMAELSPAAKTGKRKRSQ
notes: also called IFN-γ (K74A/E75Y/N75R); IFN-γK74A/E75Y/N83A
